Test results: the supplement of paper PMC12783771
± gives the standard deviation of the averaged measurements.

B1: library; numbered along this chain (parent)
chain: MNIQIGELAKRTACPVVTIRFYEQEGLLPPPGRSRGNFRLYGEEHVERLQFIRHCRSLDMPLSDVRTLLSYRKRPDQDCGEVNMLLDEHIRQVESRIGALLELKHHLVELREACSGARPAQSCGILQGLSDCVCDTRGTTAHPSD

Legend:
[1] = variants of: B1; assay: sfGFP reporter fluorescence (15 h) (µM FITC); higher = higher leak; conditions: library round: Round 1; ligand: none
In short: (§1)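 Readout was endpoint sfGFP fluorescence, converted to µM FITC through standard curves. Reactions were 1 μL of BL21 Star (DE3) PANOx-SP extract with pPbrR-sfGFP reporter, 30 μg/mL GamS and linear PbrR templates normalized to 5 nM, containing 1 µM lead chloride, 30 µM zinc acetate or no metal. Incubation lasted 15 hr at 30 °C, with up to three biological replicates.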

[2] = variants of: B1; assay: sfGFP reporter fluorescence (15 h) (µM FITC); higher = stronger transcriptional activation; conditions: library round: Round 1
In short: as §1

[3] = variants of: B1; assay: sfGFP reporter fluorescence (15 h) (µM FITC); higher = higher leak; conditions: library round: Round 0; ligand: none
Experimental: (§2)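 Cell-free (BL21 Star DE3 extract, PANOx-SP) biosensing: 1 µL Echo-assembled reactions with linear PbrR variant templates (5 nM) and pPbrR-sfGFP reporter, with 1 µM Pb (lead chloride), 30 µM Zn (zinc acetate) or no ligand; endpoint sfGFP fluorescence after 15 h at 30 °C, calibrated as µM FITC. Round 0 library (alanine scan, site saturation, combinatorial) of PbrR from Cupriavidus metallidurans; 2 biological replicates.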

[4] = variants of: B1; assay: sfGFP reporter fluorescence (15 h) (µM FITC); higher = stronger transcriptional activation; conditions: library round: Round 0
Experimental: as §2

Variant	sfGFP reporter fluorescence [1]	sfGFP reporter fluorescence ([2]; ligand: 1 µM Pb)	sfGFP reporter fluorescence ([2]; ligand: 30 µM Zn)	sfGFP reporter fluorescence [3]	sfGFP reporter fluorescence ([4]; ligand: 1 µM Pb)	sfGFP reporter fluorescence ([4]; ligand: 30 µM Zn)
N83T D135V P143A	0.0633 ± 0.0021	0.0745 ± 0.0035	0.189 ± 0.0083			
E112I D135A	0.063 ± 0.0023	0.06438 ± 0.00042	0.176 ± 0.0035			
F21G				0.059	0.0577 ± 0.0023	0.0588 ± 0.00078
F21L				0.0612 ± 0.001	0.0581 ± 0.0013	0.0696 ± 0.001
D64T R111A	0.173 ± 0.0098	0.246 ± 0.078	2.17 ± 0.2			
L126A				0.0685 ± 0.001	0.0682 ± 0.0026	0.0691 ± 0.0039
N83W P143A	0.0616 ± 0.0013	0.0688 ± 0.0011	0.0621 ± 0.0015			
E7I				0.059 ± 0.001	0.0759 ± 0.0031	0.696 ± 0.014
E7Y				0.06249 ± 0.00026	0.06542 ± 0.00026	0.2223 ± 0.00026
E7S				0.0625 ± 0.0018	0.087 ± 0.0044	0.999 ± 0.052
R39F				0.0597 ± 0.001	0.0588 ± 0.0013	0.0555 ± 0.0018
R39T				0.0616 ± 0.001	0.0608	0.06029 ± 0.00026
H89L				0.059 ± 0.0026	0.0553 ± 0.0021	0.0649 ± 0.0042
H89N				0.0597 ± 0.001	0.0663	0.261 ± 0.015
H89K				0.0601 ± 0.0026	0.0599 ± 0.0013	0.161 ± 0.0036
G128I D131S	0.0878 ± 0.004	0.253 ± 0.025	1.43 ± 0.2			
C114V				0.0566 ± 0.00078	0.0555 ± 0.00078	0.05186 ± 0.00026
C114W				0.0586 ± 0.001	0.0592 ± 0.0013	0.05241 ± 0.00052
C114H				0.0581 ± 0.0023	0.0586	0.0563 ± 0.0034
P61N G128I				0.1886 ± 0.0018	0.682 ± 0.092	3.06 ± 0.22
M60L K104V G128M				0.69 ± 0.028	1.46 ± 0.085	2.91 ± 0.039
M60L P61N D64K G128I				0.944 ± 0.037	3.29 ± 0.078	3.77 ± 0.81

Variant	sfGFP reporter fluorescence [1]	sfGFP reporter fluorescence ([2]; ligand: 1 µM Pb)	sfGFP reporter fluorescence ([2]; ligand: 30 µM Zn)	sfGFP reporter fluorescence [3]	sfGFP reporter fluorescence ([4]; ligand: 1 µM Pb)	sfGFP reporter fluorescence ([4]; ligand: 30 µM Zn)
D131A				0.0691 ± 0.00078	0.1098 ± 0.00078	1.141 ± 0.0013
D131N				0.0654 ± 0.00078	0.103 ± 0.0093	1.13 ± 0.24
P61N L107C G128I				1.6 ± 0.35	2.91 ± 0.12	3.99 ± 0.4
D135G				0.0531	0.0764 ± 0.0023	0.802 ± 0.074
D135I				0.0614 ± 0.0018	0.0927 ± 0.0031	1.72 ± 0.18
D135M				0.0636 ± 0.0018	0.09639 ± 0.00052	2.2 ± 0.33
D135L				0.059	0.0898 ± 0.0026	1.55 ± 0.24
M60L D64K G128T D135A	0.874 ± 0.016	1.32 ± 0.071	2.33 ± 0.27			
K104P				0.0509 ± 0.0073	0.0544 ± 0.0054	0.08191 ± 0.00078
M60L P61N				0.25 ± 0.0062	1.01 ± 0.48	3.5 ± 0.044
Y41K				0.06047 ± 0.00052	0.061 ± 0.0029	0.0621 ± 0.0018
Y41A				0.0616 ± 0.0042	0.0605	0.0651 ± 0.0013
D59A				0.0693 ± 0.0036	0.0755 ± 0.001	0.291 ± 0.014
N83M				0.06102 ± 0.00026	0.0768 ± 0.0023	0.06194 ± 0.00052
N83S				0.0605 ± 0.0026	0.0775 ± 0.00078	0.333 ± 0.016
N83D				0.0614 ± 0.0013	0.0607 ± 0.0013	1.003 ± 0.0065
N83W				0.059 ± 0.0031	0.0748 ± 0.0042	0.0619
N83E				0.0612 ± 0.001	0.0612 ± 0.0015	0.141 ± 0.0023
E102A				0.0735 ± 0.0018	0.0771 ± 0.0029	0.302 ± 0.057
D64K K104E	0.0882 ± 0.0047	0.31 ± 0.058	1.65 ± 0.039			
I97T				0.0579 ± 0.0042	0.0662 ± 0.0034	0.579 ± 0.0096
I97N				0.0566 ± 0.0029	0.0603 ± 0.0039	0.325 ± 0.0065

Variant	sfGFP reporter fluorescence [1]	sfGFP reporter fluorescence ([2]; ligand: 1 µM Pb)	sfGFP reporter fluorescence ([2]; ligand: 30 µM Zn)	sfGFP reporter fluorescence [3]	sfGFP reporter fluorescence ([4]; ligand: 1 µM Pb)	sfGFP reporter fluorescence ([4]; ligand: 30 µM Zn)
N83T V108N	0.06328 ± 0.00021	0.0698 ± 0.0061	0.132 ± 0.0091			
N83T L107C G128M D135A	0.561 ± 0.031	1.15 ± 0.069	2.06 ± 0.28			
P61N D64K K104V L107C G128I	0.427 ± 0.0081	0.961 ± 0.14	1.77 ± 0.27			
D64K C114F	0.0621 ± 0.0032	0.0613 ± 0.0011	0.0596 ± 0.0016			
V82I				0.0572 ± 0.0015	0.0658 ± 0.0023	0.676 ± 0.0088
V82Y				0.0588 ± 0.0034	0.05864 ± 0.00052	0.0544 ± 0.0013
V82E				0.0568 ± 0.0026	0.0586 ± 0.0015	0.0541 ± 0.0029
N83T C134M	0.05754 ± 0.00037	0.0707 ± 0.0046	0.19 ± 0.022			
V16T				0.0641 ± 0.0031	0.0982 ± 0.0021	1.14 ± 0.09
V16Q				0.0663 ± 0.0031	0.112 ± 0.0083	1.425 ± 0.0039
G6V				0.0618 ± 0.0013	0.0618 ± 0.0013	0.0651 ± 0.0013
G6C				0.0601 ± 0.0026	0.05882 ± 0.00026	0.0621 ± 0.0018
G80A				0.0577 ± 0.0029	0.0649 ± 0.0073	0.526 ± 0.039
L85V				0.0585 ± 0.0018	0.0594 ± 0.0026	0.1479 ± 0.0013
L85M				0.05754 ± 0.00052	0.06945 ± 0.00026	0.597 ± 0.017
L85F				0.057 ± 0.0029	0.0559 ± 0.0013	0.0828 ± 0.0021
L85C				0.0607 ± 0.0018	0.0577 ± 0.0013	0.117 ± 0.0039
L85E				0.0605 ± 0.0015	0.0586 ± 0.0021	0.05662 ± 0.00026
L101A				0.0632 ± 0.0013	0.0746 ± 0.0013	0.555 ± 0.17
P61D D64K D135A	0.15 ± 0.0062	0.321 ± 0.036	1.12 ± 0.11			
Y22R				0.0678 ± 0.00052	0.06579 ± 0.00026	0.0689 ± 0.0031
Y22F				0.0629 ± 0.0029	0.0662 ± 0.00078	0.173 ± 0.0039

Variant	sfGFP reporter fluorescence [1]	sfGFP reporter fluorescence ([2]; ligand: 1 µM Pb)	sfGFP reporter fluorescence ([2]; ligand: 30 µM Zn)	sfGFP reporter fluorescence [3]	sfGFP reporter fluorescence ([4]; ligand: 1 µM Pb)	sfGFP reporter fluorescence ([4]; ligand: 30 µM Zn)
L107C G128I D135S	2.64 ± 0.069	3.9 ± 0.36	4.376 ± 0.041			
I90G				0.0535 ± 0.0031	0.0577 ± 0.00078	0.222 ± 0.0086
I90Y				0.0608 ± 0.0026	0.108 ± 0.0023	0.9855 ± 0.0052
I90H				0.0619 ± 0.0036	0.0898 ± 0.0021	0.755 ± 0.0078
I125S				0.0597 ± 0.0021	0.0574 ± 0.0013	0.0568 ± 0.0021
I125P				0.0559 ± 0.00078	0.05791 ± 0.00052	0.05351 ± 0.00052
L129M				0.0577 ± 0.00078	0.05901 ± 0.00052	0.0788 ± 0.0047
L129G				0.0526 ± 0.00078	0.0542 ± 0.001	0.0509 ± 0.0021
L129P				0.05387 ± 0.00052	0.055 ± 0.0036	0.0491 ± 0.0026
V46C				0.0531 ± 0.0026	0.0781 ± 0.0021	0.574 ± 0.01
R35A				0.0658 ± 0.0029	0.08833 ± 0.00052	2.06 ± 0.079
D64T E112I D135A	0.08637 ± 0.00056	0.197 ± 0.029	1.56 ± 0.079			
H105A I125A	0.0647 ± 0.0012	0.0639 ± 0.0042	0.0656 ± 0.0013			
L62K				0.0632 ± 0.0013	0.0619 ± 0.001	0.0815 ± 0.0018
L62T				0.0607 ± 0.0034	0.0674 ± 0.0031	0.133 ± 0.0031
L62M				0.066 ± 0.001	0.0962 ± 0.0049	0.533 ± 0.033
L62D				0.06066 ± 0.00026	0.0629 ± 0.0018	0.0649 ± 0.001
L107G				0.05956 ± 0.00026	0.0836 ± 0.0036	0.4444 ± 0.0044
L107I				0.0579 ± 0.001	0.0671 ± 0.0036	0.808 ± 0.065
N83T E109F	0.0638 ± 0.0013	0.0862 ± 0.0036	0.315 ± 0.0065			
G128H P143W	0.0661 ± 0.0013	0.086 ± 0.0043	0.159 ± 0.012			
R91A K104V	0.0657 ± 0.0027	0.119 ± 0.002	0.748 ± 0.029			
